For 37 variants, ratio to parent and Kd results are on record in publication PMC5454376, “Molecular mechanism of Gαi activation by non-GPCR proteins with a Gα-Binding and Activating motif” (Nature Communications, 2017).

To fix the notation:
B1: Human His-Gαi3 WT [human] / Fluorescein-labelled GIV peptide (residues 1,671–1,701) [modified: 5,6-carboxyfluorescein coupled to the resin-bound peptide after chain elongation; 5,6-carboxyfluorescein coupled to the resin-bound … (parent)
chain 1: MGCTLSAEDKAAVERSKMIDRNLREDGEKAAKEVKLLLLGAGESGKSTIVKQMKIIHEDGYSEDECKQYKVVVYSNTIQSIIAIIRAMGRLKIDFGEAARADDARQLFVLAGSAEEGVMTPELAGVIKRLWRDGGVQACFSRSREYQLNDSASYYLNDLDRISQSNYIPTQQDVLRTRVKTTGIVETHFTFKDLYFKMFDVGGQRSERKKWIHCFEGVTAIIFCVALSDYDLVLAEDEEMNRMHESMKLFDSICNNKWFTETSIILFLNKKDLFEEKIKRSPLTICYPEYTGSNTYEEAAAYIQCQFEDLNRRKDTKEIYTHFTCATDTKNVQFVFDAVTDVIIKNNLKECGLY
chain 2: KTGSPGSEVVTLQQFLEESNKLTSVQIKSSS
B2: Human His-Gαi3 WT [human] / Fluorescein-labelled RGS12 GoLoco peptide (residues 1,185–1,221) [modified: 5,6-carboxyfluorescein coupled to the resin-bound peptide after chain elongation; 5,6-carboxyfluorescein coupled to the … (parent)
chain 1: B1 chain 1
chain 2: DEAEEFFELISKAQSNRADDQRGLLRKEDLVLPEFLR
B3: Human His-Gαi3 WT [human] / Fluorescein-labelled DAPLE peptide (residues 1,662–1,695) [modified: 5,6-carboxyfluorescein coupled to the resin-bound peptide after chain elongation; 5,6-carboxyfluorescein coupled to the … (parent)
chain 1: B1 chain 1
chain 2: SASPSSEMVTLEEFLEESNRSSPTHDTPSCRDDL

The variants in the first assay derive from B1. The assay can be described thus: fluorescence polarisation. As to conditions: with Fluorescein-labelled GIV peptide (residues 1,671–1,701) [modified: 5,6-carboxyfluorescein coupled to the resin-bound peptide after chain elongation.
With chain 1 S252A, the ratio to parent worked out at 0.417.

Turning to chain 1 S252D, the ratio to parent came to 5.32.

As to chain 1 F215A, the Kd was above 10 µM and the ratio to parent was above 20.

Consider chain 1 L37A, for which the ratio to parent was 0.822.

With chain 1 G42R, the Kd was found to be 0.377 µM and the ratio to parent amounted to 0.649.

As for chain 1 L36A, the ratio to parent turned out to be 1.22.

For the variant chain 1 W211A, the dissociation constant (Kd) is above 20 µM and the ratio to parent was above 40.

chain 1 L249V: the ratio to parent is 2.35.

For the variant chain 1 L249H, the ratio to parent is 7.58.

With chain 1 N256A, the ratio to parent came to 2.11.

With chain 1 N256E, the dissociation constant Kd is above 20 µM and the ratio to parent is above 40.

For the variant chain 1 K35A, the Kd was above 10 µM and the ratio to parent was above 20.

Take chain 1 F259A: the ratio to parent amounted to 2.57.

With chain 1 V218A, the ratio to parent is 0.623.

Consider chain 1 K257A, for which the ratio to parent came to 1.77.

As for chain 1 L39A, the ratio to parent was 5.3.

For chain 1 I184A, the ratio to parent turned out to be 3.28.

As for chain 1 W258F, the ratio to parent turned out to be 3.59.

In a further assay the parent is B2. Put plainly: fluorescence polarisation. As to conditions: with Fluorescein-labelled RGS12 GoLoco peptide (residues 1,185–1,221) [modified: 5,6-carboxyfluorescein coupled to the resin-bound peptide after chain elongation.
For the variant chain 1 L37A, the ratio to parent was found to be 1.46.

With chain 1 W211A, the ratio to parent was determined as 1.11.

Regarding chain 1 K257A, the ratio to parent came to 1.58.

In the case of chain 1 L36A, the ratio to parent stood at 2.18.

Regarding chain 1 F259A, the ratio to parent is 3.43.

Turning to chain 1 N256A, the ratio to parent worked out at 1.42.

Turning to chain 1 N256E, the ratio to parent is 5.78.

For the variant chain 1 L249H, the ratio to parent amounted to 4.89.

In the case of chain 1 L249V, the ratio to parent came to 1.54.

For chain 1 S252A, the ratio to parent turned out to be 0.644.

Regarding chain 1 S252D, the ratio to parent was determined as 6.17.

With chain 1 L39A, the ratio to parent amounted to 3.23.

On to chain 1 G42R, for which the Kd was found to be 0.098 µM and the ratio to parent came out at 1.81.

As to chain 1 V218A, the ratio to parent is 1.92.

Take chain 1 K35A: the ratio to parent was found to be 2.79.

chain 1 W258F: the ratio to parent is 1.15.

chain 1 I184A: the ratio to parent worked out at 1.53.

On to chain 1 F215A, for which the ratio to parent came out at 10.1.

Variants of B3 are the subject of another assay. Put plainly: fluorescence polarisation. As to conditions: with Fluorescein-labelled DAPLE peptide (residues 1,662–1,695) [modified: 5,6-carboxyfluorescein coupled to the resin-bound peptide after chain elongation.
chain 1 F259A: the ratio to parent came out at 2.
